From patent publication US20120149060A1 (EUROPAISCHES LABORATORIUM FUR MOLEKULARBIOLOGIE EMBL, published 2012)

How the values were obtained:
Pml1p = molecular target: T1, Pml1p (yeast, UniProt Q07930 1-204); assay: co-expression in E. coli, Ni2+ capture by the His6 tag on Snu17p, then S200 size exclusion chromatography
T1 construct: Stated to be full-length; subunit of the yeast RES complex; also called Pm1lp
T1 sequence (looked up): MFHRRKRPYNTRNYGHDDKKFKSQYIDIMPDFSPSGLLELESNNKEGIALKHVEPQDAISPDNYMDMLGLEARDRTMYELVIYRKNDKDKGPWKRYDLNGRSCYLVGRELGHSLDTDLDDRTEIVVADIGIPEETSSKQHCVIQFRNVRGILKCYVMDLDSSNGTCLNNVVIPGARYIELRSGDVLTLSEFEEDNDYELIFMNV

Bud13p = molecular target: T2, Bud13p (yeast, UniProt P46947 1-266); assay: as above
T2 construct: Stated to be full-length; subunit of the yeast RES complex
T2 sequence (looked up): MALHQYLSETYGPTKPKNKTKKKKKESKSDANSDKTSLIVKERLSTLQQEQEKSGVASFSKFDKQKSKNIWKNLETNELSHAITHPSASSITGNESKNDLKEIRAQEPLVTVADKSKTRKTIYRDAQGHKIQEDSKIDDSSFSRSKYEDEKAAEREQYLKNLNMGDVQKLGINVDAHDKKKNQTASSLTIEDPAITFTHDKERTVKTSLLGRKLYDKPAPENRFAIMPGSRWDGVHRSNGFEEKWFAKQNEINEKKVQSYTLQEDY

[1] = molecular target: T3, Von Hippel Lindau protein (amino acids 54-213), fused at its N-terminus to a six-histidine-thioredoxin fusion … (human, UniProt P40337 54-213); assay: co-expression in E. coli, Ni2+ affinity capture by the tag on VHL, SDS-PAGE
T3 construct: range 54-213; Subunit of the VHLbc complex, expressed from the pACE-VHLbc tricistron; also called VHL; HisTrxVHL; not shown: N-terminal six-histidine-thioredoxin fusion tag
T3 sequence (P40337 54-213): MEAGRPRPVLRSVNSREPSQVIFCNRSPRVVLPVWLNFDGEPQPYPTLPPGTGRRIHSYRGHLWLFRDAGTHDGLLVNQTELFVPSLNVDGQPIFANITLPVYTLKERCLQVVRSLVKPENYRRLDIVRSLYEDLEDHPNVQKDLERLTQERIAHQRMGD

[2] = molecular target: T4, full-length human RAP74 with a C-terminal oligo-histidine tag (human, UniProt P35269 1-517); assay: co-expression in E. coli, Ni2+ capture by the His tag on RAP74, then S200 size exclusion chromatography
T4 construct: Stated to be full-length; co-expressed with RAP30 in E. coli BL21(DE3); also called hRAP74; RAP74his; not shown: C-terminal oligo-histidine tag
T4 sequence (looked up): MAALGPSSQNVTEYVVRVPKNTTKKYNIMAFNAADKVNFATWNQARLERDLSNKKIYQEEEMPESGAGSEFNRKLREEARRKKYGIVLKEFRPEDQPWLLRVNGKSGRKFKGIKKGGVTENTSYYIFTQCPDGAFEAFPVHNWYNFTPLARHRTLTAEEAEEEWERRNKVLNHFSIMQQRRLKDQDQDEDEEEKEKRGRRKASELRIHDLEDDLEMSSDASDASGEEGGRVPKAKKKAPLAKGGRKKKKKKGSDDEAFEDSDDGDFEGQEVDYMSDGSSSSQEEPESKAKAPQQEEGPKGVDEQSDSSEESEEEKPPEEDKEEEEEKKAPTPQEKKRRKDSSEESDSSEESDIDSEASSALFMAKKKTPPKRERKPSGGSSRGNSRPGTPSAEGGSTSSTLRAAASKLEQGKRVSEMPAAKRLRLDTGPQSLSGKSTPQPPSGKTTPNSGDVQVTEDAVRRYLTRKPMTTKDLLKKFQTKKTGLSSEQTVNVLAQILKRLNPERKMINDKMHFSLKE

B1: His6-tagged Snu17p (other, yeast, UniProt P40565 1-148, looked up)
chain: MNKIQQINDKELQSGILSPHQSWHNEYKDNAYIYIGNLNRELTEGDILTVFSEYGVPVDVILSRDENTGESQGFAYLKYEDQRSTILAVDNLNGFKIGGRALKIDHTFYRPKRSLQKYYEAVKEELDRDIVSKNNAEKLILAKKDQPN
notes: Stated to be full-length; subunit of the yeast RES complex; also called Snu17p-NHis; not shown: six-histidine tag fused to the N-terminus
**Q.** Does B1 bind (Pml1p)?
**A.** binds

**Q.** Does B1 bind (Bud13p)?
**A.** binds

B2: full-length elongin b (other, human, UniProt Q15370 1-118, looked up)
chain: MDVFLMIRRHKTTIFTDAKESSTVFELKRIVEGILKRPPDEQRLYKDDQLLDDGKTLGECGFTSQTARPQAPATVGLAFRADDTFEALCIEPFSSPPELPDVMKPQDSGSSANEQAVQ
notes: Stated to be full-length
**Q.** Does B2 bind [1]?
**A.** binds

B3: full-length human RAP30 (other, UniProt P13984 1-249, looked up)
chain: MAERGELDLTGAKQNTGVWLVKVPKYLSQQWAKASGRGEVGKLRIAKTQGRTEVSFTLNEDLANIHDIGGKPASVSAPREHPFVLQSVGGQTLTVFTESSSDKLSLEGIVVQRAECRPAASENYMRLKRLQIEESSKPVRLSQQLDKVVTTNYKPVANHQYNIEYERKKKEDGKRARADKQHVLDMLFSAFEKHQYYNLKDLVDITKQPVVYLKEILKEIGVQNVKGIHKNTWELKPEYRHYQGEEKSD
notes: Stated to be full-length; also called hRAP30
**Q.** Does B3 bind [2]?
**A.** binds
